What all share (test): SPR, captured via anti-human kappa, soluble ECD injected
In test [1] the target is T1, Soluble human EGFR ECD protein (human, UniProt P00533 25-645).
T1 construct: extracellular domain; His-tagged

Test [2] has as its target T2, Soluble human cMet extracellular domain (ECD) protein (human, UniProt P08581 25-932).
T2 construct: extracellular domain; His-tagged

For test [3], the target named is T3, Soluble human HER-2 extracellular domain (ECD) protein (human, UniProt P04626 23-652).
T3 construct: extracellular domain; His-tagged

T2 sequence (P08581 25-932): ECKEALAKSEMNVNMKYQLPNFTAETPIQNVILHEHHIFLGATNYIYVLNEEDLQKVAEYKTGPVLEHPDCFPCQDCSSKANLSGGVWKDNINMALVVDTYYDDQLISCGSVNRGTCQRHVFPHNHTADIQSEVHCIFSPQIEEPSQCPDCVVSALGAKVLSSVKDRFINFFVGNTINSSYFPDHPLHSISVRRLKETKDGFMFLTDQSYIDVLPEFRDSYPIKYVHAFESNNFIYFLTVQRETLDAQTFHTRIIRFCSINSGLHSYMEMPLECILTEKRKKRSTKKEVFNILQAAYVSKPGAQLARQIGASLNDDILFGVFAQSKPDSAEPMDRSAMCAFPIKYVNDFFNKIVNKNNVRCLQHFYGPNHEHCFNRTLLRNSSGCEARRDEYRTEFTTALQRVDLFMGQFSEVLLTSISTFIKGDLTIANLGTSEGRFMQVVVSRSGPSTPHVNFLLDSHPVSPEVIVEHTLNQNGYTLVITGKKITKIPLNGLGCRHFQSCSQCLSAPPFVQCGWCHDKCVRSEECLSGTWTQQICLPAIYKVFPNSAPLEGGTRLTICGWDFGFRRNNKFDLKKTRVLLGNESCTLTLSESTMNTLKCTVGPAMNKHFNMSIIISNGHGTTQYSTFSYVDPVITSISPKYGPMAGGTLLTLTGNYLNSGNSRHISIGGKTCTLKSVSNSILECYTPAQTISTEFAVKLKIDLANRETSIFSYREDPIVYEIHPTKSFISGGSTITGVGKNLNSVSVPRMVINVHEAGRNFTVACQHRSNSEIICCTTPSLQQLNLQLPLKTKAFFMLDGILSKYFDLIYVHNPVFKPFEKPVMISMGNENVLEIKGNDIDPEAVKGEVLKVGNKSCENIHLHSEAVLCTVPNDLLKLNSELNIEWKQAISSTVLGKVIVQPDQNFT

B1: HER-2 X EGFR X cMet TsAb_C_HL (other)
heavy 1: EVQLVESGGGLVQPGGSLRLSCAASGFTFTDYTMDWVRKAPGKGLEWVADVNPNSGGSIYNQEFKGRFTLSVDRSKNTLYLQMNSLRAEDTAVYYCARNLGPSFYFDYWGQGTLVTVSSASTKGPSVFPLAPSSKSTSGGTAALGCLVKDYFPEPVTVSWNSGALTSGVATGPAVLQSSGLYSLSSVVTVPSSSLGTQTYICNVNHKPSNTKVDKKVEPKSCDKTHTCPPCPAPEAAGGPSVFLFPPKPKDTLMISRTPEVTCVVVDVSHEDPEVKFNWYVDGVEVHNAKTKPREQYQSTYRVVSVLTVLHQDWLNGKEYKCKVSNKALPAPIEKTISKAKGQPREPQVSTLPPSREEMTKNQVSLMCLVYGFYPSDIAVEWESNGQPENNYKTTPPVLDSDGSFFLYSVLTVDKSRWQQGNVFSCSVMHEALHNHYTQKSLSLSPGKGGGGSGGGGSGGGGSGGGGSEVQLVESGGGLVQPGGSLRLSCAASGYTFTSYWLHWVRQAPGKGLEWVGMIDPSNSDTRFNPNFKDRFTISADTSKNTAYLQMNSLRAEDTAVYYCATYRSYVTPLDYWGRGTLVTVSSASTKGPSVFPLAPSSKSTSGGTAALGCLVADYFPEPVTVSWNSGALTSGVHTFPAVLQSSGLYSLSSVVTVPSSSLGTQTYICNVNHKPSNTKVDERVEPKSC
light 1: RIQMTQSPSSLSASVGDRVTITCKASQDVSIGVAWYQDKPGKAPKLLIYSASYRYTGVPSRFSGSGSGTDFTLTISSLQPEDFATYYCQQYYIYPYTFGQGTKVEIKGQPKAAPSVTLFPPSSEELQANKATLVCYISDFYPGAVTVAWKADSSPVKAGVETTTPSKQSNNKYAAWSYLSLTPEQWKSHRSYSCQVTHEGSTVEKTVAPTEC
heavy 2: QVQLVQSGAEVKKPGASVKVSCKASGYTFTSHWMHWVRYAPGQGLEWIGEFNPSNGRTNYNEKFKSKATMTVDTSTNTAYMELSSLRSEDTAVYYCASRDYDYDGRYFDYWGQGTLVTVSSASTKGPSVFPLAPCSKSTSGGTAALGCLVKDYFPEPVTVSWNSGALTSGVHTFPAVLQSSGLYSLSSVVTVPSSSLGTQTYICNVNHKPSNTKVDKKVEPDSGDKTHTCPPCPAPEAAGGPSVFLFPPKPKDTLMISRTPEVTCVVVDVSHEDPEVKFNWYVDGVEVHNAKTKPREEQYQSTYRVVSVLTVLHQDWLNGKEYKCKVSNKALPAPIEKTISKAKGQPREPQVYTLPPSRGDMTKNQVQLTCLVKGFYPSDIAVEWESNGQPENNYKTTPPVLDSDGSFFLASKLTVDKSRWQQGNVFSCSVMHEALHNHYTQKSLSLSPGKGGGGSGGGGSGGGGSGGGGSDIQMTQSPSSLSASVGDRVTITCKSSQSLLYTSSQKNYLAWYQQKPGDAPKLLIYWASTRESGVPSRFSGSGSGTDFTLTISSLQPEDFATYYCQQYYAYPWTFGQGTKVEIKRTVAAPSVFIFPPSDKQLKSGTARVVCLLNNFYPREAKVQWKVDNALQSGNSQESVTEQDSKDSTYSLISTLTLSKADYEKHKVYACEVTHQGLSSPVTKSFNRGEC
light 2: DIQMTQSPSSLSASVGDRVTITCSASSSVTYMYWYQRKPGKAPKLLIYDTSNLASGVPSRFSGSGSGTDYTFTISSLQPEDIATYYCQQWSSHIFTFGQGTKVEIKRTVAAPSVFIFPPSKEQLKSGTASVVCLLNNFYPREAKVQWKVDNALQSGNSQESVTEQDSKDSTYSLSSTLTLSKADYEKHKVYACEVTHQGLSSPVTKSFNRGEC
notes: Trispecific IgG-Fab antibody with Fabs from pertuzumab, matuzumab and MetMAb; the anti-cMet Fab is dually tethered at the C-terminus of the heterodimeric Fc
As usually defined, the Kd is a measure of binding affinity in units of concentration. Higher therefore signals a looser complex. For orientation: koff means the rate constant with which the complex falls apart. Low values mean slow dissociation, high ones fast dissociation. As a reminder, the kon is a measure of how fast the partners come together. High values mean fast association, low ones slow association. With B1, the values for the Kd in test [1], in test [2] and in test [3] were 10 nM, 74 nM and 1.2 nM, respectively. Also, the figures for the koff in test [1], in test [2] and in test [3] were 0.0085 s⁻¹, 0.00025 s⁻¹ and 0.00027 s⁻¹, respectively. Further, the kon amounted to 850000 M⁻¹ s⁻¹ in test [1], 3400 M⁻¹ s⁻¹ in test [2] and 230000 M⁻¹ s⁻¹ in test [3].

B2: HER-2 X EGFR X cMet TsAb_C_L (other)
heavy 1: EVQLVESGGGLVQPGGSLRLSCAASGFTFTDYTMDWVRKAPGKGLEWVADVNPNSGGSIYNQEFKGRFTLSVDRSKNTLYLQMNSLRAEDTAVYYCARNLGPSFYFDYWGQGTLVTVSSASTKGPSVFPLAPSSKSTSGGTAALGCLVKDYFPEPVTVSWNSGALTSGVATGPAVLQSSGLYSLSSVVTVPSSSLGTQTYICNVNHKPSNTKVDKKVEPKSCDKTHTCPPCPAPEAAGGPSVFLFPPKPKDTLMISRTPEVTCVVVDVSHEDPEVKFNWYVDGVEVHNAKTKPREEQYQSTYRVVSVLTVLHQDWLNGKEYKCKVSNKALPAPIEKTISKAKGQPREPQVSTLPPSREEMTKNQVSLMCLVYGFYPSDIAVEWESNGQPENNYKTTPPVLDSDGSFFLYSVLTVDKSRWQQGNVFSCSVMHEALHNHYTQKSLSLSPG
light 1: RIQMTQSPSSLSASVGDRVTITCKASQDVSIGVAWYQDKPGKAPKLLIYSASYRYTGVPSRFSGSGSGTDFTLTISSLQPEDFATYYCQQYYIYPYTFGQGTKVEIKGQPKAAPSVTLFPPSSEELQANKATLVCYISDFYPGAVTVAWKADSSPVKAGVETTTPSKQSNNKYAAWSYLSLTPEQWKSHRSYSCQVTHEGSTVEKTVAPTEC
chain: EVQLVESGGGLVQPGGSLRLSCAASGYTFTSYWLHWVRQAPGKGLEWVGMIDPSNSDTRFNPNFKDRFTISADTSKNTAYLQMNSLRAEDTAVYYCATYRSYVTPLDYWGRGTLVTVSSASTKGPSVFPLAPSSKSTSGGTAALGCLVADYFPEPVTVSWNSGALTSGVHTFPAVLQSSGLYSLSSVVTVPSSSLGTQTYICNVNHKPSNTKVDERVEPKSC
heavy 2: QVQLVQSGAEVKKPGASVKVSCKASGYTFTSHWMHWVRYAPGQGLEWIGEFNPSNGRTNYNEKFKSKATMTVDTSTNTAYMELSSLRSEDTAVYYCASRDYDYDGRYFDYWGQGTLVTVSSASTKGPSVFPLAPCSKSTSGGTAALGCLVKDYFPEPVTVSWNSGALTSGVHTFPAVLQSSGLYSLSSVVTVPSSSLGTQTYICNVNHKPSNTKVDKKVEPDSGDKTHTCPPCPAPEAAGGPSVFLFPPKPKDTLMISRTPEVTCVVVDVSHEDPEVKFNWYVDGVEVHNAKTKPREEQYQSTYRVVSVLTVLHQDWLNGKEYKCKVSNKALPAPIEKTISKAKGQPREPQVYTLPPSRGDMTKNQVQLTCLVKGFYPSDIAVEWESNGQPENNYKTTPPVLDSDGSFFLASKLTVDKSRWQQGNVFSCSVMHEALHNHYTQKSLSLSPGKGGGGSGGGGSGGGGSGGGGSDIQMTQSPSSLSASVGDRVTITCKSSQSLLYTSSQKNYLAWYQQKPGDAPKLLIYWASTRESGVPSRFSGSGSGTDFTLTISSLQPEDFATYYCQQYYAYPWTFGQGTKVEIKRTVAAPSVFIFPPSDKQLKSGTARVVCLLNNFYPREAKVQWKVDNALQSGNSQESVTEQDSKDSTYSLISTLTLSKADYEKHKVYACEVTHQGLSSPVTKSFNRGEC
light 2: DIQMTQSPSSLSASVGDRVTITCSASSSVTYMYWYQRKPGKAPKLLIYDTSNLASGVPSRFSGSGSGTDYTFTISSLQPEDIATYYCQQWSSHIFTFGQGTKVEIKRTVAAPSVFIFPPSKEQLKSGTASVVCLLNNFYPREAKVQWKVDNALQSGNSQESVTEQDSKDSTYSLSSTLTLSKADYEKHKVYACEVTHQGLSSPVTKSFNRGEC
notes: Trispecific IgG-Fab antibody; the anti-cMet Fab is tethered through its light chain only at the C-terminus of HC2
In test [1], B2 displayed a Kd of 4.5 nM, a koff of 0.0086 s⁻¹ and a kon of 1.9e+06 M⁻¹ s⁻¹. In test [2], this molecule showed a Kd of 0.69 nM, a koff of 0.00025 s⁻¹ and a kon of 360000 M⁻¹ s⁻¹. For the same molecule, in test [3], the Kd came to 0.8 nM, the koff came out at 0.00039 s⁻¹ and the kon came out at 520000 M⁻¹ s⁻¹.

B3: Matuzumab (antibody, V domains shown)
VH: QVQLVQSGAEVKKPGASVKVSCKASGYTFTSHWMHWVRQAPGQGLEWIGEFNPSNGRTNYNEKFKSKATMTVDTSTNTAYMELSSLRSEDTAVYYCASRDYDYDGRYFDYWGQGTLVTVSS
VL: DIQMTQSPSSLSASVGDRVTITCSASSSVTYMYWYQQKPGKAPKLLIYDTSNLASGVPSRFSGSGSGTDYTFTISSLQPEDIATYYCQQWSSHIFTFGQGTKVEIKG
With B3, in test [1], the Kd worked out at 13 nM, the koff came to 0.0083 s⁻¹ and the kon came out at 650000 M⁻¹ s⁻¹.

Source of the values: US20240132626A1 (Eli Lilly, published 2024).
